Source: article PMC4268493

Target: TNF-FLAG (UniProt P01375)
Assay: SPR

Sequence of UniProt P01375 (P01375 whole entry): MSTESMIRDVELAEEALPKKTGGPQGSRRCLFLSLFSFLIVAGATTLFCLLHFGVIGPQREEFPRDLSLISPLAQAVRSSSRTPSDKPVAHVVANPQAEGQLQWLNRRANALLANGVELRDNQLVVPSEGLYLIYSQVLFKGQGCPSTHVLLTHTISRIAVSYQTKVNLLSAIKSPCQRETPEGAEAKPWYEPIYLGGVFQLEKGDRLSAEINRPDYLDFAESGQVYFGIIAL

Kd: 15.6 nM
Substance: Δ6-TNFR1-Fc fusion protein (from UniProt P19438-4 30-183)
